Source: publication PMC7515697 (2020)

T1: X. albilineans Cas8f–Cas5f heterodimer (Xanthomonas albilineans)
T1 chain 1: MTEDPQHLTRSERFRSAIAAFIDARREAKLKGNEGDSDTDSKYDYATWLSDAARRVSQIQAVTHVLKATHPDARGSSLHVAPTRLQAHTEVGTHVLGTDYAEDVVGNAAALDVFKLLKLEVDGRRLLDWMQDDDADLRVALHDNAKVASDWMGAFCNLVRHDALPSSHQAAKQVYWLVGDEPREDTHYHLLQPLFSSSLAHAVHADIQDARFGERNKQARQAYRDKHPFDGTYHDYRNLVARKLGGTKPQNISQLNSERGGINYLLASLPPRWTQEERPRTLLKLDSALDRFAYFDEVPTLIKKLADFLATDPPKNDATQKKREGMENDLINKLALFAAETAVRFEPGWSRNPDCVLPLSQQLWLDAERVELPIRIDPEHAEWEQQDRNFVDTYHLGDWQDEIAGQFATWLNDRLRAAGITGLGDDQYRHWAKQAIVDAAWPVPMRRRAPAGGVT
T1 chain 2: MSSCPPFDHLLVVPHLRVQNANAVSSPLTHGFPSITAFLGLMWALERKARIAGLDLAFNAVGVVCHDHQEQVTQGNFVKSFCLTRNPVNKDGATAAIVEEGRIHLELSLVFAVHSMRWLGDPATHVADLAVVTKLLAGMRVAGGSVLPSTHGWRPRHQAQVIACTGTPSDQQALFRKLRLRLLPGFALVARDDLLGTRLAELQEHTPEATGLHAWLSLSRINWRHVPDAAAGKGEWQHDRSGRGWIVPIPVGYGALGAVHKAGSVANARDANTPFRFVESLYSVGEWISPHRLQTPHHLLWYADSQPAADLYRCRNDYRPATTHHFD


Tests used:
[1] = target: X. albilineans Cas8f–Cas5f heterodimer (Xanthomonas albilineans); test: ITC; 250 μM AcrIF7 in the syringe titrated into 35 μM Cas8f–Cas5f in the cell; 20 mM Tris–HCl pH 7.5, 150 mM NaCl, 1 mM TCEP, 25°C; one-site binding model
[2] = target: X. albilineans Cas8f–Cas5f heterodimer (Xanthomonas albilineans); test: ITC; as the standard ITC but with 500 mM NaCl instead of 150 mM
[3] = target: X. albilineans Cas8f(K248E)–Cas5f heterodimer (Xanthomonas albilineans); test: ITC; 250 μM AcrIF7 in the syringe titrated into 35 μM Cas8f–Cas5f in the cell; 20 mM Tris–HCl pH 7.5, 150 mM NaCl, 1 mM TCEP, 25°C; one-site binding model
[4] = target: X. albilineans Cas8f(K29E)–Cas5f heterodimer (Xanthomonas albilineans); test: as above
[5] = target: T1, X. albilineans Cas8f–Cas5f heterodimer; test: ITC; 500 mM NaCl

Molecule | Kd [1] [nM] | dH [1] [kcal/mol] | stoichiometry N [1] | also measured
AcrIF7 E46K/E47K (natural protein) | 46 | -17 | 0.8 | 
AcrIF7 D13K (natural protein) | 2450 | -14.2 | 0.72 | 
AcrIF7 D57K (natural protein) | 333 | -12.7 | 0.77 | 
AcrIF7 D28K/D29K (natural protein) | 179 | -12.9 | 0.75 | 
AcrIF7 E33K/E34K (natural protein) | 4850 | -9.5 | 0.9 | 
AcrIF7 (a.a. 1–67) (natural protein) | 46 | -17.1 | 0.78 | fold reduction of the strength of the interaction at 500 mM NaCl against 150 mM NaCl [2]: 2.7 fold; Kd [3]: 1870 nM; dH [3]: -16 kcal/mol; stoichiometry N [3]: 0.78; Kd [4]: 327 nM; dH [4]: -14.5 kcal/mol; stoichiometry N [4]: 0.83
AcrIF7 E18K (natural protein) | 49 | -19.6 | 0.88 | 
AcrIF7 E22K (natural protein) | 50 | -15.6 | 0.75 | 
AcrIF7 (a.a. 1–67) (natural protein) MTTFTSIVTTNPDFGGFEFYVEAGQQFDDSAYEEAYGVSVPSAVVEEMNAKAAQLKDGEWLNVSHEA |  |  |  | Kd [5]: 124 nM
